The source of these data is the DeepSol protein solubility set.

A short description of this data set: soluble on expression in E. coli; label from the status in PepcDB or PDB records.
Consider “DKELFFINVYDITASKKAERELIESEEKFKQVVELSVDGIIIGTDSGKIVDCNGAACRIFGYDKEEILKLQVIDLFPGDLNIIAHDITSCNKAAGEKTVERINQKKDGTSFPAEVAARRVKLGN”, for which the “soluble on expression in E. coli” value is reported as “not soluble”.
For the sequence “DKPVLKDSMRLFEQLGRVKSRSMFGGFGIFVDETMFALVVNDTLHIRADDATIEKYKQQGYEPYVYKKRGFPVVTKYYALPEDCWSHPDSILNEVRAALEVAKAERETQAQAK”, the “soluble on expression in E. coli” value is “not soluble”.
In the case of “DKREYFVYLPPTYGKGDNHYSVIYMQDGDIVIKILNELMDLIENKSKKDVYDESIIVGVKPIVRNDDYTPWEAEAISKGSSEFGGRGDIYLNFLIKKLKPYIDNKYRTKKEKN”, the “soluble on expression in E. coli” value is on record as “not soluble”.
Consider “DNRLKEENPDSTLRDTEYIDVGESPDGGKYRGVILFELGQLNKTNKIEKATLSLFWYYPEESRKEDTILEVYRPEKWCEEHISWGAREINTPWKNPGGDWYDKNGVSQGSTPYSTITFKSSSLPDNRYYELDVTELVREYISGKYENTGFLIKSRAEDSDYIAFYSSEWQNKNQMPRLSIEYKNE”, for which the “soluble on expression in E. coli” value is recorded as “not soluble”.
In the case of “DRKAVLNAAEQHFSGWKELYLCLVDRDTQGGLVVETGGPLTFSEAERAAADWAWQHDQPAGSGTGTLPSGRWWWWPITAEEGPLALLGVCAREGQSFTDQHRRLLAALTQPLAQALARAQLAQELEAARLHGETEQLRSALLASVSHDLRTP” it was “not soluble”; in that of “DSTITGASEKAEDAFKASYPAVYRYLEGYKDLLTKRNQAETGIRYEWYALQRWGANYWEDFSKPKIMWKRIGSILRFCYNENGALGLDSTCFAAGKG”, “not soluble”; in that of “DSYYNGHQDGDAIAYLILANKLIHELCPDAITIAEEVSGMPGLALPLADGGYGFDYRLAMNIPDFWIKLIKEHRDEDWNPGDIWYQLTNRRQEEKTISYAESHDQALVGDKTIIFRLIDADMYWYMNKQSCVHSVDRGIALLKMIRLFTATTMNGGYLNFMGNEFGHPEWIDFPREGNGWSYKYARRQWSLADSPFLRYAGLHLFDQDMIAMIRSVESFHKLPLREYWLKREEQVICYGRGDFFFVFNFHPERSYSDYPIPLPAGKYSVAMSTDARKYEGFGRVDEWVEHFTLPDGSKDRFTHEQYLNLYLPARSALVLKLAE”, “not soluble”.
As to “DVQLVESGGGSVQAGGSLRLSCAASGSTDSIEYMTWFRQAPGKAREGVAALYTHTGNTYYTDSVKGRFTISQDKAKNMAYLRMDSVKSEDTAIYTCGATRKYVPVRFALDQSSYDYWGQGTQVTVSSRGRHHHHHH”, the “soluble on expression in E. coli” value was “soluble”.
For “DWVIPPISSPENEKGPFPKNLVQIKSNKDKEGKVFYSITGQGADTPPVGVFIIERETGWLKVTEPLDRERIATYTLFSHAVSSNGNAVEDPMEILITVTDQNDNKPEFTQEVFKGSVMEGALPGTSVMEVTATDADDDVNTYNAAIAYTILSQDPELPDKNMFTINRNTGVISVVTTGLDRESFPTYTLVVQAADLQGEGLSTTATAVITVTD” the value was “soluble”; for “DYNASDMKVVSLRTKDNLHLKSWYKPASKHRPTILYLHGNAGHIGYRMPLVREFIDAGLGVFLLEYRGYGGNPGKPGEKGLYEDGETAIEFLIQHGVPSKRVILYGESIGTGVATHLATKYPVCAVILQSPFTSLTRLAQYHYPLNFLKPWDQYNSLARMKKINAPILVLHGKLDQIVPYQEGLNVFNEANEPKKMVSFDDKEHNDLWSADNFSREIIQFALNQCS”, “not soluble”; for “DYYFDSYDHYGIHEEMLQDTVRTLSYRNAIIQNKDLFKDKIVLDVGCGTGILSMFAAKHGAKHVIGVDMSSIIEMAKELVELNGFSDKITLLRGKLEDVHLPFPKVDIIISEWMGYFLLYESMMDTVLYARDHYLVEGGLIFPDKCSIHLAGLEDSQYKDEKLNYWQDVYGFDYSPFVPLVLHEPIVDTVERNNVNTTSDKLIEFDLNTVKISDLAFKSNFKLTAKRQDMINGIVTWFDIVFPAPKGKRPVEFSTGPHAPYTHWKQTIFYFPDDLDAETGDTIEGELVCSPNEKNNRDLNIKISYKFESNGIDGNSRSRKNEGSYLMH”, “soluble”.
On to “EAGAMDERTFGKSIEVYTRQICEELLTTAAGNTDAHYKTYRCPLCGNDSVRVFPKIVKCVTDGCGFKVFRELCGTLLSKEYIHALMTDGCTPLLCRLTGKSGKTFNARLKLDKDGGTSFVFDSKPRKPQT”, for which the “soluble on expression in E. coli” value is “not soluble”.
